Test results: US20050079613A1, “Downregulation of cell surface glycoproteins by a family of human ubiquitin ligases” (Oregon Health & Science University, priority 2002, published 2005)

Tested on: Fas (CD95), MHC I, HLA-A2.1, CD4, transferrin receptor, B7.1
Assay: Surface glycoprotein panel on transfected HeLa cells, flow cytometry
Assay type: cell-based, human
Details: HeLa cells transfected with MARCH plasmid
Protocol: Flow cytometry. Cells were removed from tissue culture dishes with 0.05% Trypsin-EDTA (Invitrogen), washed with ice-cold PBS, and incubated with appropriate antibody for 30 minutes at 4° C. The cells were washed with ice-cold PBS and either resuspended in ice-cold PBS or incubated with PE-conjugated anti-mouse secondary antibody (DAKO) and washed again before analysis with a BD Biosciences (San Jose, Calif.) FACScalibur flow cytometer.
The ability to downregulate MHC I is common to KSHV-K3, KSHV-K5, MHV68-K3 and MV-M153R (Coscoy and Ganem, 2000, supra; Guerin et al., 2002, supra; Ishido et al., 2000b supra; Stevenson et al., 2000, supra). Additional substrates are ICAM-1 and B7.2 (but not B7.1) for KSHV-K5, as well as CD95 and CD4 for M153R (Coscoy and Ganem, 2001, supra; Guerin et al., 2002, supra; Ishido et al., 2000a, supra; Mansouri et al., 2003, supra). Since only low copy numbers were detected in HeLa cells for transcripts corresponding to each of the MARCH-proteins (FIG. 7C, and data not shown), HeLa cells were transfected with expression plasmids for MARCH-I, II, III, IV, V and VIII. Surface expression of selected glycoproteins was monitored upon transfection. […] Surface expression of the respective markers was analyzed by flow cytometry. […]

B1: MARCH-V: four-transmembrane human RING-CH protein, SEQ ID NOS:47 and 58 (protein, listed as Homo sapiens)
chain: MPDQALQQMLDRSCWVCFATDEDDRTAEWVRPCRCRGSTKWVHQACLQRWVDEKQRGNSTARVACPQCNAEYLIVFPKLGPVVYVLDLADRLISKACPFAAAGIMVGSIYWTAVTYGAVTVMQVVGHKEGLDVMERADPLFLLIGLPTIPVMLILGKMIRWEDYVLRLWRKYSNKLQILNSIFPGIGCPVPRIPAEANPLADHVSATRILCGALVFPTIATIVGKLMFSSVNSNLQRTILGGIAFVAIKGAFKVYFKQQQYLRQAHRKILNYPEQEEA
reduction in surface levels of any of the glycoproteins of the panel: No reduction in surface levels
